In test [1] the target is T1, mCherry-tagged CDK5 (cyclin-dependent kinase 5) (UniProt Q00535 1-292).
T1 construct: Cyclin-dependent kinase 5 (CDK5); Printed both as CDK5-mCherry and as mCherry-CDK5; also called CDK5-mCherry; mCherry-CDK5; source: N1E-115 cells, transfected, in lysate
Nature of the test: co-IP; N1E-115 cells co-transfected with mCherry-tagged CDK5 and HA-tagged 5-HT7R constructs; IP with anti-mCherry antibody, Western blot with anti-HA antibody; ratio of co-precipitated receptor normalized to the WT sample; also done after knock-down of Gαs by shRNA (Additional file 5). As to conditions: partners not purified. (In general: Immunoblotting shows a protein as a band on a membrane.)

Test [2] deals with T1, mCherry-tagged CDK5 (cyclin-dependent …). The experiment in a line: cell-based or functional assay.

This is an account of results in paper PMC11031989, “Structural determinants for activation of the Tau kinase CDK5 by the serotonin receptor 5-HT7R” (Cell Communication and Signaling : CCS, 2024).

Residue numbers refer to the chain shown, from its start. Names may count otherwise.

B1: HA-tagged 5-HT7R (serotonin receptor 7), wild type (receptor, UniProt P32304 1-448, looked up)
chain: MMDVNSSGRPDLYGHLRSLILPEVGRRLQDLSPDGGAHSVVSSWMPHLLSGFPEVTASPAPTWDAPPDNVSGCGEQINYGRVEKVVIGSILTLITLLTIAGNCLVVISVCFVKKLRQPSNYLIVSLALADLSVAVAVMPFVSVTDLIGGKWIFGHFFCNVFIAMDVMCCTASIMTLCVISIDRYLGITRPLTYPVRQNGKCMAKMILSVWLLSASITLPPLFGWAQNVNDDKVCLISQDFGYTIYSTAVAFYIPMSVMLFMYYQIYKAARKSAAKHKFSGFPRVQPESVISLNGVVKLQKEVEECANLSRLLKHERKNISIFKREQKAATTLGIIVGAFTVCWLPFFLLSTARPFICGTSCSCIPLWVERTCLWLGYANSLINPFIYAFFNRDLRTTYRSLLQCQYRNINRKLSAAGMHEALKLAERPERSEFVLQNCDHCGKKGHDT
notes: Serotonin receptor 7 (5-HT7R), wild type; pcDNA3.1(+) vector; also called 5-HT7R WT; WT; source: N1E-115 cells, transfected, in lysate; not shown: HA, N-terminal, kept
On to B1, for which the “co-precipitated receptor, normalized to WT” value in test [1] came out at 100%.

B2: HA-tagged 5-HT7R F278A;F281A (receptor, UniProt P32304 1-448, looked up)
chain: B1 chain with F278A, F281A
notes: Serotonin receptor 7 (5-HT7R) with F278A and F281A in intracellular loop 3; Primers are in Additional file 1; also called F278;F281A; source: N1E-115 cells, transfected, in lysate; not shown: HA, N-terminal, kept
Turning to B2, the “phosphorylation of endogenous CDK5 at S159 (read-out for CDK5 activation) in N1E-115 cells expressing the HA-tagged receptor, % of WT” value in test [2] stood at 49.2%. Also, in test [1], the “co-precipitated receptor, normalized to WT” value came out at 64.5%.

B3: HA-tagged 5-HT7R F281A (receptor, UniProt P32304 1-448, looked up)
chain: B1 chain with F281A
notes: Serotonin receptor 7 (5-HT7R) with F281A in intracellular loop 3; Primers are in Additional file 1; source: N1E-115 cells, transfected, in lysate; not shown: HA, N-terminal, kept
B3: the “phosphorylation of endogenous CDK5 at S159 (read-out for CDK5 activation) in N1E-115 cells expressing the HA-tagged receptor, % of WT” value in test [2] is 45.7%. Further, in test [1], the “co-precipitated receptor, normalized to WT” value was 73.8%.
